This passage reports Kd results from patent US20230227571A1 (published 2023).

Like-named read-outs stand apart in the source and are kept apart here.

What all share (assay): SPR (Biacore)
(In SPR one partner is held on a chip, and binding of the other changes the refractive index at the surface.)

For test [1], the target named is T1, human C5 (purified human complement C5, Complement Technology #A120; also C5 in normal human serum) (human, UniProt P01031 19-673; P01031 678-1676).
Test [2] addresses T1, human C5 (purified human complement C5, …). The source holds these as a separate data set.
The target is the same in test [3]. This is another data set of the same source.
Test [4] shares this target. This is another data set of the same source.
For test [5] the target is unchanged. The source holds these as a separate data set.

A word on the Kd: it is the equilibrium constant for the complex coming apart. Low values mean a tighter complex, high ones a looser complex.

T1 sequence (P01031 19-673, chain 1 of 2): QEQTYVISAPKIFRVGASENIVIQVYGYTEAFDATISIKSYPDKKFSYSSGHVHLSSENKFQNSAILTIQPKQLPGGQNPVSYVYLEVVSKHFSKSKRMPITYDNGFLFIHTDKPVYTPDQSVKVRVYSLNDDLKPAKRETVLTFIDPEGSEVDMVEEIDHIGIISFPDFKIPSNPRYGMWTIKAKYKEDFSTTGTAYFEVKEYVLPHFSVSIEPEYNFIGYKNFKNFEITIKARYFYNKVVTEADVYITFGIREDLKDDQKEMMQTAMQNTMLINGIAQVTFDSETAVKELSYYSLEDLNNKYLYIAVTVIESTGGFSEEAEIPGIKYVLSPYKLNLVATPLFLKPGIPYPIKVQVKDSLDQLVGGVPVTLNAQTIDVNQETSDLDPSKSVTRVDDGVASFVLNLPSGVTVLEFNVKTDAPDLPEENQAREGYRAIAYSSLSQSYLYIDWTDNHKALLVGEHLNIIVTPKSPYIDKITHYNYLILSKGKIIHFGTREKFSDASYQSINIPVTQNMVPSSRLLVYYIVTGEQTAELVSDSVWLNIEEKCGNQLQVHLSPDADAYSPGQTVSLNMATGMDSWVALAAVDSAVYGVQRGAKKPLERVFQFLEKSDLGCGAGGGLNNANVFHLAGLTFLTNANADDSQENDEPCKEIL
T1 sequence (P01031 678-1676, chain 2 of 2): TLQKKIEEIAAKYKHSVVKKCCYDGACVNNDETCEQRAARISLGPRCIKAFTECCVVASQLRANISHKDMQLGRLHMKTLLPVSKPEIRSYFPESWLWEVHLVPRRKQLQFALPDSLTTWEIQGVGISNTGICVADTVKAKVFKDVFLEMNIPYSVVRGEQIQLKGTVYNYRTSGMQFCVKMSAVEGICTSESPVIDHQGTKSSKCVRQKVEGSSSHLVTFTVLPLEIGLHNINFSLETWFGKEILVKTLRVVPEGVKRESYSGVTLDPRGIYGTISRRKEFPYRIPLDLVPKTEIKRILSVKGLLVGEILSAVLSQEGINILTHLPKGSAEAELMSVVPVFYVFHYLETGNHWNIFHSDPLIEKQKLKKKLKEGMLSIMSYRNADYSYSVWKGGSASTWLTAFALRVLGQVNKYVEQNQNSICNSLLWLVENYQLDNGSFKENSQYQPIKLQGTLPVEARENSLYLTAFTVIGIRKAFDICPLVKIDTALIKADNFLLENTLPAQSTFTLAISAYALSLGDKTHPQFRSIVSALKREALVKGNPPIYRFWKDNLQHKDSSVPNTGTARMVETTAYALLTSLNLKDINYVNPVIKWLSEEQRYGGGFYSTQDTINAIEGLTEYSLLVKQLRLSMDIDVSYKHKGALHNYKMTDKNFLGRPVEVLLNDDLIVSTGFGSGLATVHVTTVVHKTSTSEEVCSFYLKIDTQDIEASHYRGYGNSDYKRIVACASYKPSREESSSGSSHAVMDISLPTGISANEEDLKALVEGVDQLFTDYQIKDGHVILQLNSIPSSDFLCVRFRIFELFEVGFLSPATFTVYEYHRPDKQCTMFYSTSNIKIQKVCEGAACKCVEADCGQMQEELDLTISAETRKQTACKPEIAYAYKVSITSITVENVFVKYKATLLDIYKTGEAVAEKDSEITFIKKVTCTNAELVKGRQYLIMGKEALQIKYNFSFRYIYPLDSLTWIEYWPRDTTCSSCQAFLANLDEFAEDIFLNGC

B1: anti-human C5 mAb 8E1 (antibody, V domains shown)
VH: QVQLKESGPGLVAPSQSLSITCTVSGFPLNNYGIHWVRQPPGKGLEWLAVIWSDGRTTYNSALNSRLSISKDNSKSQVFFKMNSLQTDDTAMYYCARHDGRGDYSMDYWGQGTSVTVSS
VL: ELVMTQSPASLVVSLGQRATISCRASKGVSTSVYSYMHWYQQKPGQPPKLLIYLASNLESGVPARFSGSGSGTDFSLNIHPVEEEDAATYYCQQSGELPLTFGAGTKLELKR
As to B1, in test [1], binding was characterised by a dissociation constant (Kd) of 0.427 nM.

B2: anti-human C5 mAb 2G1 (antibody, V domains shown)
VH: EVQLQQSGPELVKPGASVKISCKASGYTITDYNLDWVKQSHGKSLEWIGDISPNYGYTIYNQKFKDKATLTVDRSSSTAYMELRSLTSEDTAVYYCARRDIRYSGNSYKWYFDVWGTGTTVTVSS
VL: DVQITQSPSYLAASPGETITINCRTSKSISKYLAWYQEKPGKTNKLLIYSGSTLQSGIPSRFRGSGSGTDFTLTISSLEPEDFAMYYCQQHNEYPYTFGGGTKLEIK
With B2, in test [2], the equilibrium dissociation constant (Kd) turned out to be 0.845 nM.

B3: anti-human C5 mAb 11C5 (antibody, V domains shown)
VH: EVQLVESGGGLVKPGGSLKLSCAASGFTFTTYAMSWVRQTPEKRLEWVATISAGGTYTYYSDNVKGRFTISRDNAKNNLYLQMSHLKSEDTAMFYCARDPDYYGRSPFAYWGQGTLVTVSA
VL: EIVLTQSPATLSVTPGESVSLSCRASQSISNNLQWYQQKSHESPRLLIKYASQSISGIPSRFSGSGSGTDFTLSINSVETEDFGMYFCQQSNSWPLTFGGGTKVELKR
The molecule B3 returned a Kd in test [3] of 12.5 nM.

B4: anti-human C5 mAb 11D9 (antibody, V domains shown)
VH: EVQLQQSGPEVVKPGASVKISCKASGYTFTDFYMNWVKQSHGKSLEWIGYINPNNGDTSYNQKFKGKATSTVDRSSNTAYMELRSLTSEDSAVYYCARLIFYGNWYFDVWGTGTTVTVSS
VL: EIVLTQSPPTMAASPGEKITITCSASSSISSNYVHWYQQKPGFSPKLLIYRTSNLASGVPVRFSGSGSGTSYSLTIGTMEAEDVATYYCQQGTSIPWTFGGGTKVEINR
In turn, B4 displayed a Kd in test [4] of 2.2 nM.

B5: anti-human C5 mAb 9G6 (antibody, V domains shown)
VH: QIQLVQSGPELKKPGETVKISCKASGYTFTEYPMHWVKQAPGKSFKWMGILYTDTGEPTYAEEFRGRFAFSLETSASTAYLQINNLKNEDTATYFCVHSGYVGYWGQGTTLTVSS
VL: DIQMTQSPASLSASVGETVTFTCRASEIIYSYLVWYQQKQGKSPQLLVSNAKTLAEGVPSRFSGSGSGTQFSLKINSLQPEDFGSYYCQHYYGNPPTFGGGTKLEIKR
B5 registered a Kd in test [5] of 2.2 nM.
